In PMC4240730:

Tests used:
basigin (Homo sapiens) = basigin (Homo sapiens) (UniProt P35613); conditions: cited from earlier work
[1] = target: basigin (immunoglobulin domains 1 and 2 of the short isoform, residues 22-205) (UniProt P35613); assay: AUC
[2] = target: basigin (immunoglobulin domains 1 and 2 of the short isoform, residues 22-205) (UniProt P35613); assay: SPR

For PfRH5 (from UniProt Q8IFM5), the Kd (basigin (Homo sapiens)) is given as 1100 nM.
Work on “PfRH5ΔN (residues K140-Q526) (from UniProt Q8IFM5 140-526) (domain or fragment)” yielded a stoichiometry N [1] of 1.
“PfRH5ΔNL (from UniProt Q8IFM5 140-526) (domain or fragment)” showed a Kd [2] of 1300 nM.
